Measurements reported in publication PMC12768534 (2025).

Tests used:
human IL-21 receptor = human IL-21 receptor (human, UniProt Q9HBE5 20-538); assay: BLI
murine IL-21R = murine IL-21R (murine, UniProt Q9JHX3 20-529); assay: BLI
murine γc = biological target: T1, murine γc (murine, UniProt P34902 23-369); assay: BLI; in presence of mIL-21R (mIL-21R/mγc)
T1 chain: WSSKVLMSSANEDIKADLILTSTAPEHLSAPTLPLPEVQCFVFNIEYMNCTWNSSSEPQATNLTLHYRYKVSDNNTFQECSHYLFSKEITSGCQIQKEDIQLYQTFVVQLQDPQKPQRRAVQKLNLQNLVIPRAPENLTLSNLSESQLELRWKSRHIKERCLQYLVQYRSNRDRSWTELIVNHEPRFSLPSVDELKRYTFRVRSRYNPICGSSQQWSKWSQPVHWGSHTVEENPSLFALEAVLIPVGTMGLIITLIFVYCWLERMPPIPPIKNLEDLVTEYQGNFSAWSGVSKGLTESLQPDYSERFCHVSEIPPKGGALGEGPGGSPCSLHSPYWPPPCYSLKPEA

[1] = biological target: T2, human common cytokine receptor γ chain (human, UniProt P31785 23-369); assay: BLI; in presence of hIL-21R (hIL-21R/hγc)
T2 chain: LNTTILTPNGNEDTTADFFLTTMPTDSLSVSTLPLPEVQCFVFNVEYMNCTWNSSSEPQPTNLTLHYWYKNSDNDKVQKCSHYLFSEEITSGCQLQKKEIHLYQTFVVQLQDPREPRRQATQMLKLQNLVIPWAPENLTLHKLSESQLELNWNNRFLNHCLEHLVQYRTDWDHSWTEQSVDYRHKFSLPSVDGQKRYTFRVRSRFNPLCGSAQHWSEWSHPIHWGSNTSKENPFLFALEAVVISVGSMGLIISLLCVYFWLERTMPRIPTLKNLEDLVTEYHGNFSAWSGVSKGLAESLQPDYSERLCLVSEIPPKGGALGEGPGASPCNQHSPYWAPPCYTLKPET

human IL-21 receptor, sequence (Q9HBE5 20-538): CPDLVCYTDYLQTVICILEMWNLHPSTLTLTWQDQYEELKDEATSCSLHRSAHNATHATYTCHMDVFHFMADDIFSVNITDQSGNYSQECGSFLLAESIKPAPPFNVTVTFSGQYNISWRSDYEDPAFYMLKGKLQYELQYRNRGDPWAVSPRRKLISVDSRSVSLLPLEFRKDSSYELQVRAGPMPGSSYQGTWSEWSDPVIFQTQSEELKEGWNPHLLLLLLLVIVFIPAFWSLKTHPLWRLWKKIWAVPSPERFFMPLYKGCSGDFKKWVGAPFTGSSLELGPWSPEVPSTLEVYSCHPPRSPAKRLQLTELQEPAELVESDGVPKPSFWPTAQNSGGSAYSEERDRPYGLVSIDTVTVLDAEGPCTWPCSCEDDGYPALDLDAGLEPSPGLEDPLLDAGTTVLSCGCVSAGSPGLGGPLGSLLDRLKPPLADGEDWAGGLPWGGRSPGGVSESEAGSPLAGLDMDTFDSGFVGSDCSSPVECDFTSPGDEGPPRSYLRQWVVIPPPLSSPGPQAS

B1: 21h10 (designed binder)
chain: DEEELKEIMKEAAECARKELEKLDNTDEDTRWLKITLKKIVRMANRIVRMREREADSKRFEIRMRGLIDIADHVKREFASEDLKEVMERAKSAAQKALGRWL
B1 showed a Kd (human IL-21 receptor) of 0.0737 nM, a Kd (murine IL-21R) of 5.17 nM and a Kd (murine γc) of 93.3 nM. It also gave a Kd [1] of 85.5 nM.
